Data reported in US20120009190A1 (Amgen, published 2012).
Blank lines part the entries; values can stand above or below the binder they belong to.

What was measured:
[1] = biological target: human IL-17RA on normal human foreskin fibroblasts (HFF) (human) (UniProt Q96F46); assay: cell-based or functional assay
[2] = biological target: T1, huIL-17.Fc (huIL17 with N-terminal flag and huFC (IgG1)) (human, UniProt Q16552 24-155); assay: flow cytometry, huIL-17.Fc staining with anti-huIgG-APC
T1 construct: also called IL-17 fused to human Fc; not shown: human IgG1 Fc (huFC)
T1 sequence (Q16552 other isoform, or with tags, fused parts or gaps limits assumed): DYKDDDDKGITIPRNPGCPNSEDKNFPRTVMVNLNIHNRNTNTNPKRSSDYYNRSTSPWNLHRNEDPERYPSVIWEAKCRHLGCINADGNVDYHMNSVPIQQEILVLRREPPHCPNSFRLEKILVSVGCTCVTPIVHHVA
Protocol: Cells were incubated with M750 or M177 anti-mouse IL-17RA followed by anti-rat PE (BD Pharmigen). To prepare huIL-17.Fc, a cDNA encoding huIL17, N-terminal flag and huFC (IgG1) was amplified by PCR and cloned into the Pdc409 vector. Secreted IL17.Fc was purified from transfected COS cells over a Protein A column and its concentration determined using a human Fc ELISA. For binding, 293 cells were blocked with anti-human IL-17RA (M202) and stained with huIL17.Fc followed by anti-hulgG-APC (Jackson Immunoresearch, West Grove, Pa.). Data were analyzed on a FACSCalibur with Cell Quest software (BD Biosciences). FRET data were obtained from three channel images using the macro of LSM FRET tool software (Zeiss AIM software, per standard techniques). A minimum of 50 regions of interest at the membrane were assessed for each condition. FRET efficiencies were calculated by the NFRET method and significance determined by t-test.

GROα (ELISA) from HFF + 5 ng/mL huIL-17A, IL-17R PLAD-LINKER-GSS-FH at 0.032 ug/mL [1]: 437 pg/mL
GROα (ELISA) from HFF + 5 ng/mL huIL-17A, IL-17R PLAD-LINKER-GSS-FH at 0.16 ug/mL [1]: 541 pg/mL
GROα (ELISA) from HFF + 5 ng/mL huIL-17A, IL-17R PLAD-LINKER-GSS-FH at 0.8 ug/mL [1]: 460 pg/mL
GROα (ELISA) from HFF + 5 ng/mL huIL-17A, IL-17R PLAD-LINKER-GSS-FH at 4 ug/mL [1]: 381 pg/mL
GROα (ELISA) from HFF + 5 ng/mL huIL-17A, IL-17R PLAD-LINKER-GSS-FH at 20 ug/mL [1]: 310 pg/mL
GROα (ELISA) from HFF + 5 ng/mL huIL-17A, IL-17R PLAD-LINKER-GSS-FH at 100 ug/mL [1]: 315 pg/mL
B1: IL-17R PLAD-LINKER-GSS-FH (recombinant human IL-17R PLAD-linker, first generation construct) (receptor)
chain: DCEHARMKVTTPCMSSGSLWDPNITVETLEAHQLRVSFTLWNESTHYQILLTSFPHMENHSCFEHMHHIPAPRPEEFHQRSNVTLTLRNLKGCCRHQVQ

binding result [2]: no binding
B2: FN2 domain construct of IL-17RA (lacking FN1 and the linker), expressed on cells (receptor)
chain: PNITVETLDTQHLRVDFTLWNESTPYQVLLESFSDSENHSCFDVVKQIFAPRQEEFHQRANVTFTLSKFHWCCHHHVQV
notes: not shown: transmembrane region, cytoplasmic part and any tag of the construct

GROα (ELISA) from HFF + 5 ng/mL huIL-17A, IL-17R PLAD-mod-GSS-FH at 0.032 ug/mL [1]: 467 pg/mL
GROα (ELISA) from HFF + 5 ng/mL huIL-17A, IL-17R PLAD-mod-GSS-FH at 0.16 ug/mL [1]: 486 pg/mL
GROα (ELISA) from HFF + 5 ng/mL huIL-17A, IL-17R PLAD-mod-GSS-FH at 0.8 ug/mL [1]: 484 pg/mL
GROα (ELISA) from HFF + 5 ng/mL huIL-17A, IL-17R PLAD-mod-GSS-FH at 4 ug/mL [1]: 499 pg/mL
GROα (ELISA) from HFF + 5 ng/mL huIL-17A, IL-17R PLAD-mod-GSS-FH at 20 ug/mL [1]: 440 pg/mL
GROα (ELISA) from HFF + 5 ng/mL huIL-17A, IL-17R PLAD-mod-GSS-FH at 100 ug/mL [1]: 411 pg/mL
B3: IL-17R PLAD-mod-GSS-FH (recombinant human IL-17R PLAD without the linker, second generation construct) (receptor)
chain: PNITVETLEAHQLRVSFTLWNESTHYQILLTSFPHMENHSCFEHMHHIPAPRPEEFHQRSNVTLTLRNLKGCCRHQVQIQPFFSSCLNDCLRHSATVSCPEMPDTPEPIPDGSSDYKDDDDKGSSHHHHHH

GROα (ELISA) from HFF + 5 ng/mL huIL-17A, IL-17R PLAD-GSS-FH at 0.032 ug/mL [1]: 460 pg/mL
GROα (ELISA) from HFF + 5 ng/mL huIL-17A, IL-17R PLAD-GSS-FH at 0.16 ug/mL [1]: 463 pg/mL
GROα (ELISA) from HFF + 5 ng/mL huIL-17A, IL-17R PLAD-GSS-FH at 0.8 ug/mL [1]: 471 pg/mL
GROα (ELISA) from HFF + 5 ng/mL huIL-17A, IL-17R PLAD-GSS-FH at 4 ug/mL [1]: 420 pg/mL
GROα (ELISA) from HFF + 5 ng/mL huIL-17A, IL-17R PLAD-GSS-FH at 20 ug/mL [1]: 363 pg/mL
GROα (ELISA) from HFF + 5 ng/mL huIL-17A, IL-17R PLAD-GSS-FH at 100 ug/mL [1]: 300 pg/mL
B4: IL-17R PLAD-GSS-FH (recombinant human IL-17R PLAD without the linker, first generation construct) (receptor)
chain: PNITVETLEAHQLRVSFTLWNESTHYQILLTSFPHMENHSCFEHMHHIPAPRPEEFHQRSNVTLTLRNLKGCCRHQVQ
